The text below walks through data of patent US11254722B2, “Recombinant proteins and uses thereof” (ACADEMIA SINICA, priority 2017, dated 2022).

The subject of one assay is cancer cells. Nature of the assay: In vitro proliferation of cancer cells stimulated by growth factors (Table 8). The assay is classed as cell-based. As for the experimental part:
(§1) For the proliferation assay, cells except for HUVEC were seeded at a density of 1,000 to 6,000 in 96 wells in an assay buffer of DMEM/F12 plus 0.2% BSA and 10 ug/ml transferrin. Chemical inhibitors were added after 16-20 hours after plating; IGF-1 or other growth factors or test chimeras in assay buffer were added at the time of plating or 16-20 hours after plating. 5,000 HUVEC ells were plated in poly-L-lysine coated 96 wells in M199 with 1%/FBS and HEPES. After 3 to 4 days of culture, growth was determined by incubating cells with Alamar blue for 4 to 6 hours and then the fluorescence (RFU) at 544/590 nm was read. For long term proliferation assays, cells were plated in the growth media with 5% or 10% FBS at densities of 500 to 10,000 cells per cm^2 growth area and grown for 7 to 21 days. Inhibitors and effectors were added 1-4 days after plating. Cells were exposed to cisplatin or gemcitabine for two days. Medium was renewed twice weekly. At completion, cells were fixed and then stained with Giemsa.
(§2) The BP3-fc construct inhibited the proliferation of cancer cells that had been stimulated by IGF-1, IGF-2, neuregulin, HGF, and bFGF.

The test system of the next assay is fibroblasts. Nature of the assay: Proliferation induced by PDGF BB in fibroblasts (Table 8). The assay is classed as cell-based. Here is the method: as §1, §2
The target in assay [1] is T1, VEGF (Homo sapiens, UniProt P15692).
T1 construct: purchased R&D Systems
T1 sequence (P15692 27-191 isoform P15692-4): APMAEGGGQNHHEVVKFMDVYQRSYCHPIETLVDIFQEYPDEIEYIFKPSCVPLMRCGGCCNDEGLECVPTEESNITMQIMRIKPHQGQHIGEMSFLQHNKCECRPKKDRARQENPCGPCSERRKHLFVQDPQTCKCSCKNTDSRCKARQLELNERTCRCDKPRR
Nature of the assay: In vitro proliferation stimulated by VEGF (Table 8). The assay is classed as cell-based. As for the experimental part: as §1
The BP3-VEGF-trap-fc (including the IGFBP3 domains, the VEGFR1 domain 2 and VEGFR2 domain 3 (VEGF-trap (22)), and human immunoglobulin Fc region) broadened the binding to include VEGF-A, VEGF-B, and placental growth factor (PIGF). This BP3-VEGF-trap chimera could inhibit the proliferation stimulated by IGF-1, IGF-2, neuregulin, PDGF-BB, HGF, bFGF, VEGF-A, and PIGF (see, Table 8).

For assay [2], the target named is T1, VEGF. Briefly: Biacore binding to VEGF. The note with it: Table 5; the kd is very low and difficult to measure. As for the experimental part:
(§3) Biacore binding was performed at David Myszka's laboratory at the University of Utah or at the Genomic Research Center at Academia Sinica. Surfaces of binding protein chimera were made via chemical immobilization on a CM4 chip using standard amine coupling chemistry. […] Excess surface carboxyl activated sites on all four flow cells was blocked using the doubly positively charged species ethylenediamine. Binding experiments (but not immobilizations) in HBS-P (10 mM HEPES pH 7.4, 150 mM NaCl, 0.05% P20), The HBS-P was supplemented with BSA at 0.2 mg/mL, or HBS-P was supplemented with 500 mM NaCl (650 mM NaCl, final concentration). Analytes were also reconstituted in the corresponding buffer. All experiments were performed at 25° C. 1/150 dilutions of phosphoric acid were used to regenerate IGFBP3-Fc surfaces and a sequence of 3 M MgCl2 followed by 5 M GuCl was used to regenerate surfaces immobilized with growth factor. Dissociation constants reported below used immobilized binding protein unless noted. Differences between binding constants may be expected between growth factor immobilization and chimera immobilization.
Background: Surface plasmon resonance follows binding to a sensor surface in real time, without labels.

The next assay has as its target T2, TGF-α (Homo sapiens, UniProt P01135).
T2 construct: purchased R&D Sciences or SinoBiologicals
Nature of the assay: Biacore binding to TGF-α. Conditions: Table 5. As for the experimental part: as §3

The test system of assay [3] is MCF-7 breast cancer cells. Briefly: MCF-7 proliferation assay. Type of assay: cell-based. Conditions: FIG. 5. As for the experimental part:
(§4) MCF-7 cells (a breast cancer cell line) were maintained in MEM (GIBCO) plus insulin and NEAA and 10% FBS (Hyclone).
as §1
We next examined the effect of 56662 (BP3/Fc) on the proliferation induced by growth factors that interacted with the IGFBP3. The proliferation of MCF-7 breast cancer cells was induced in serum-free medium by individual growth factors like IGF-1, IGF-2, EGF, TGF-a, Nrgbx, b-FGF, and amphiregulin (FIG. 1).

The next assay concerns hep3B cells. Nature of the assay: hep3B proliferation assay. Type of assay: cell-based, human. Put shortly:
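Cells seeded at 1,000 to 6,000 per well in DMEM/F12 with 0.2% BSA and 10 ug/ml transferrin. Inhibitors added 16-20 h after plating; IGF-1 or other growth factors at plating or 16-20 h later. After 3 to 4 days, growth read by Alamar blue fluorescence at 544/590 nm after 4 to 6 h.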

For the next assay, the system named is HUVEC cells. Nature of the assay: HUVEC proliferation assay. The assay is classed as cell-based. As for the experimental part: as §4, §1
Growth factor synergism can also be observed in the proliferation of HUVEC cells.

T2 sequence (P01135 40-89 limits assumed): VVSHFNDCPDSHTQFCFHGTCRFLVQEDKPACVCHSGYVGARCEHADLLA

Consider “VEGF-trap: the VEGFR1 domain 2 and VEGFR2 domain 3 (VEGF-trap (22)) [reference compound]”, for which, in the assay with cancer cells, the “inhibition of proliferation stimulated by HGF” value is given as “no”, the “inhibition of proliferation stimulated by IGF-1” value is reported as “no”, the “inhibition of proliferation stimulated by IGF-2” value was “no” and the “inhibition of proliferation stimulated by bFGF” value is on record as “no”. The “inhibition of proliferation stimulated by nrgbx” value in the assay with cancer cells is “no”. In addition, the “inhibition of proliferation stimulated by PDGF BB” value with fibroblasts is listed as “no”. For the same molecule, the “inhibition of proliferation stimulated by VEGF” value with VEGF [1] is “inh”.

B1: h3t33fc: IGFBP3 with IGFBP3 linker deletion 1-Fc, SEQ ID NO: 8 (protein)
chain: MSEVPVARVWLVLLLLTVQVGVTAGGASSAGLGPVVRCEPCDARALAQCAPPPAVCAELVREPGCGCCLTCALSEGQPCGIYTERCGSGLRCQPSPDEARPLQALLDGRGLCVNASAVSKGHAKDSQRYKVDYESQSTDTQNFSSESKRETEYGPCRREMEDTLNHLKFLNVLSPRGVHIPNCDKKGFYKKKQCRPSKGRKRGFCWCVDKYGQPLPGYTTKGKEDVHCYSMQSKVECPPCPAPPVAGPSVFLFPPKPKDQLMISRTPEVTCVVVDVSHEDPEVKFNWYVDGVEVHNAKTKPREEQYNSTYRVVSVLTVLHQDWLNGKEYKCKVSNKGLPSSIEKTISKAKGQPREPQVYTLPPSREEMTKNQVSLTCLVKGFYPSDIAVEWESNGQPENNYKTTPPVLDSDGSFFLYSKLTVDKSRWQQGNVFSCSVMHEGLHNHYTQKSLSLSPGK
As to B1, the “Dissociation Constants, VEGF” value with VEGF [2] is given as “no binding”. For the same molecule, the “Dissociation Constants, TGF-α” value with TGF-α is given as “no binding”. In addition, the “inhibition of IGF-1-induced proliferation of MCF-7, compared to 56662 and chimera B” value in assay [3] was “a smaller EC50 and a higher maximal inhibition”. For the same molecule, the “increase of inhibitory activity of erlotinib” value in the assay with hep3B cells (100 nM chimera h3t33Fc, hep3B) is “about 100 fold”. The “inhibition of hep3B cells treated with erlotinib” value with hep3B cells (combination with erlotinib, FIG. 15, FIG. 16A) is recorded as “synergistically inhibited”. The “inhibition of VEGF-induced proliferation of HUVEC cells” value with HUVEC cells (FIG. 6, FIG. 13) was “did not inhibit”. The “inhibition of HUVEC proliferation induced by IGF, bFGF, HGF or a combination” value in the assay on HUVEC cells (FIG. 13) is given as “inhibited”.
